Data: US20180333502A1

Molecular target: activated human CD4 T cells (GITR) (human) (UniProt Q9Y5U5)
Test: FACS binding to activated human CD4 T cells; isotype control

Chain of activated human CD4 T cells (GITR) (human) (Q9Y5U5 26-241): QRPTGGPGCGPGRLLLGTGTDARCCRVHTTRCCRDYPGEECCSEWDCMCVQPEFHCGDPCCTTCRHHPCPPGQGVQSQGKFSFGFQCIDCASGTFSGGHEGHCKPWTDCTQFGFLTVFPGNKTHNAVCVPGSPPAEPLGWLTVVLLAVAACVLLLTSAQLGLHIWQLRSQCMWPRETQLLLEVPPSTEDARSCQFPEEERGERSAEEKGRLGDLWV

Substance | EC50
unrelated hIgG1 | 132 nM
unrelated hIgG2 | 6.72 nM
